Read-outs that look alike come from different tables or passages of the source.
Columns and labels:
Assay in all cases: cell-based or functional assay
[1] = target: receptor of ecotropic murine leukaemia virus Rec1 (murine) (UniProt Q09143)
[2] = target: receptor of ecotropic murine leukaemia virus Rec1 (murine) (UniProt Q09143); remark: listed apart in the source
[3] = target: receptor of ecotropic murine leukaemia virus Rec1 (murine) (UniProt Q09143); remark: listed apart in the source

Chain of receptor of ecotropic murine leukaemia virus Rec1 (murine) (Q09143 whole entry): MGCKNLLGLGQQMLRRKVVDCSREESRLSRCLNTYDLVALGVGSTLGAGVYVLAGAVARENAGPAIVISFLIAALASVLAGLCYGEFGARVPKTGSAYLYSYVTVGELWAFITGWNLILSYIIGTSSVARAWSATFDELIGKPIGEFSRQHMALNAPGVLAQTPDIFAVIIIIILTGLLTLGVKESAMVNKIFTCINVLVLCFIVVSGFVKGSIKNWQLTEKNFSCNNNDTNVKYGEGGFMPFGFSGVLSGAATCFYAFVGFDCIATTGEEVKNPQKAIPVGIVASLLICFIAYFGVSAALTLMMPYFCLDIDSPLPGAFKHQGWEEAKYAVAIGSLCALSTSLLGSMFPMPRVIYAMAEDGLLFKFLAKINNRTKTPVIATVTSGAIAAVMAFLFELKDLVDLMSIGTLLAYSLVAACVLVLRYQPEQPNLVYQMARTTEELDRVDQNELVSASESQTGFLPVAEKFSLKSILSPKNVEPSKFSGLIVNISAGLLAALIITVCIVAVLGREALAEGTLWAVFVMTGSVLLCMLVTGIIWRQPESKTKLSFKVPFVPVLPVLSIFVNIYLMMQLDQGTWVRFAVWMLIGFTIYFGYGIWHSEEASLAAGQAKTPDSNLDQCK
Chain of envelope protein of ecotropic Friend murine leukaemia virus molecular clone PVC-211 (P26803 35-676 limits assumed): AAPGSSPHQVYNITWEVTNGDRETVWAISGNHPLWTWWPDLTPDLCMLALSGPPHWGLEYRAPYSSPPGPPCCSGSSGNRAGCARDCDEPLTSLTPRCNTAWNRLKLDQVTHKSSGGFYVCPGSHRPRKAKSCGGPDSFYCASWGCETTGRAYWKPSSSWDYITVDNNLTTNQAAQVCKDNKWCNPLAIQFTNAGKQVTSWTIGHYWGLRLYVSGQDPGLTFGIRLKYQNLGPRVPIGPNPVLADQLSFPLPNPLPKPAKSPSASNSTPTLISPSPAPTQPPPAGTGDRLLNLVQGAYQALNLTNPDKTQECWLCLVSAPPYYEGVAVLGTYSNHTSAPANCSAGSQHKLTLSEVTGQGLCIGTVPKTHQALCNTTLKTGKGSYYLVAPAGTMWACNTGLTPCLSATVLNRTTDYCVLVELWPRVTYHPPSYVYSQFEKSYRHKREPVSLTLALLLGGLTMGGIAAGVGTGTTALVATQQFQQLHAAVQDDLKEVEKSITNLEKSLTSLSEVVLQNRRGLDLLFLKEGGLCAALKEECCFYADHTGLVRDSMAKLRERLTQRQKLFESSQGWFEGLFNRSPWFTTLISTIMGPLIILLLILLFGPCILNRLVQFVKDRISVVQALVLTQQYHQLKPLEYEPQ
Chain of wild type envelope of ecotropic Moloney murine leukaemia virus (P03385 34-665 limits assumed): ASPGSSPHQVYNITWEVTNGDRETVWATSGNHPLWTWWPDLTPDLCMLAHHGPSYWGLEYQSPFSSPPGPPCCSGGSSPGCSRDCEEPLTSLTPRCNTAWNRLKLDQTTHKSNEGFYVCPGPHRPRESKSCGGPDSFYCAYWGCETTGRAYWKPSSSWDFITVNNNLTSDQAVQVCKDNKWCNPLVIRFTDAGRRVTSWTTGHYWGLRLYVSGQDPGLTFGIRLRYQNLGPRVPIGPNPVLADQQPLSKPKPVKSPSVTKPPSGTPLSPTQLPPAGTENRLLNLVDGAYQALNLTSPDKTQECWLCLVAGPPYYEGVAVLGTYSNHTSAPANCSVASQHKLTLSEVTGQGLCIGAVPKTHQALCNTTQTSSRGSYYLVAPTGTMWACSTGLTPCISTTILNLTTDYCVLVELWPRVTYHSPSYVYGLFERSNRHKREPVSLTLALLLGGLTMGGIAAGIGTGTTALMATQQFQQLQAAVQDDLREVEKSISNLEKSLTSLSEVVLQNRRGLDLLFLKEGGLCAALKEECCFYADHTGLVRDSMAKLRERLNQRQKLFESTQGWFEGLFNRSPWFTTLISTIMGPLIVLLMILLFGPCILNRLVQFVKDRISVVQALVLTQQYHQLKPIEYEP

Substance	transduction efficiency (% GFP positive cells) in CHO-S Rec1-I-puro cells [1] [%]	transduction efficiency (% GFP positive cells) in CHO T-REx Rec1-I-neo cells [2] [%]	transduction efficiency (% GFP positive cells) in CHO-K1 Rec1-I-neo cells [2] [%]	transduction efficiency (% GFP positive cells) in CHO-S Rec1-I-puro cells [2] [%]	fold gene transfer efficiency, CHO-S Rec1-I-puro cells against CHO-S cells [3] [fold]	fold transduction efficiency in CHO-S Rec1-I-puro cells, MLV (PVC-211 Env) against MLV (wtEnv) vector particles [3] [fold]	puromycin-resistant cell colonies counted in ten fields, CHO-S Rec1-I-neo cells transduced once [3] [colonies]	puromycin-resistant cell colonies counted in ten fields, CHO-S Rec1-I-neo cells transduced three times [3] [colonies]	transduction efficiency (% GFP positive cells) in BHK Rec1-I-puro cells [3] [%]	transduction efficiency (% GFP positive cells) in CHO-S Rec1-I-puro cells [3] [%]	transduction efficiency (% GFP positive cells) in HT1080 Rec1-I-neo cells [3] [%]	fold gene transfer efficiency, CHO-S Rec1-I-puro cells against parental CHO-S cells [3] [fold]	fold gene transfer, CHO-S Rec1-I-puro cells against CHO-S cells [3] [fold]	gene transfer efficiency (% GFP positive cells) in CHO-S Rec1-I-puro cells [3] [%]
envelope protein of ecotropic Friend murine leukaemia virus molecular clone PVC-211 (from UniProt P26803 35-676)	19	71.1	48.3	73	13	> 33	41	230	31	15.5	16	–	–	–
wild type envelope of ecotropic Moloney murine leukaemia virus (from UniProt P03385 34-665)	0.56	9.95	14.7	12.1	–	–	–	–	4.72	0.55	0.21	3	3.7	1.14
